{"source": "paper PMC6425487", "origin": "cited, not measured here", "target": "Cterm (position 6, KEKGLF-----)", "test": "NMR", "settings": "150 mM; free peptide in solution", "data": [{"protein": "KEKGLF", "values": [{"measurement": "pKa", "value": 3.2}]}]}
